Experimental data taken from the DeepSol protein solubility set.

test: soluble on expression in E. coli; label from the status in PepcDB or PDB records

Row | Sequence | soluble on expression in E. coli
1 | MSLASTFKFLVTSDNHLGYQERDSRRGDDSFTTFEECLRAARLEHEVDAILLAGDFFHDNKPSLGCLARTSSLLRSYVLGDKPISFTLLSDPKRNFPTHPVPLANFQDPNINVALPIFMIHGNHDDPVGGTSSIDILSTAGLVNYFGHTSSLDDIVVEPVLLKKGDTYIALYGLGNVRDDRLHRCFRMKKLHFVQPKTEPGKDWFKILLFHQNRGVRSGGNMKCGIYETMLAGHGMDLVIWGNEHEQQMEPSPSEGFDIIQPGSTILTSLSEHECNPKKYGVLEVRGGSYRVTGFPLRSIRPVVRRTVELWRDNPGCRTLDAVEDFLRSVVEQMIEEAEEQVSRIPDDVLKFHPNIKFPIMRLAVDFTDPDSTTFPQPNINRFGQQYMDIVVNPSELLRPIKPKQVPRVASSASATGGEAPVVPVPRLNTSDIRTKVAEVFNANARDACSLLSESEVSAAVYAFAEKGERDAIDERICELLSKCQKSVWVSMRREGHHHHHH | soluble
2 | MWQQAIGDALGITARNLKKFGDRFPHVSDGSNKYVLNDNTDWTDGFWSGILWLCYEYTGDEQYREGAVRTVASFRERLDRFENLDHHDIGFLYSLSAKAQWIVEKDESARKLALDAADVLMRRWRADAGIIQAWGPKGDPENGGRIIIDCLLNLPLLLWAGEQTGDPEYRRVAEAHALKSRRFLVRGDDSSYHTFYFDPENGNAIRGGTHQGNTDGSTWTRGQAWGIYGFALNSRYLGNADLLETAKRMARHFLARVPEDGVVYWDFEVPQEPSSYRDSSASAITACGLLEIASQLDESDPERQRFIDAAKTTVTALRDGYAERDDGEAEGFIRRGSYHVRGGISPDDYTIWGDYYYLEALLRLERGVTGYWYERGR | soluble
3 | MAHHHHHHMPGKRKRVQGDDNTESQASAVPQGDGQTRARPESHGDTNQPAATHIRVEEPRQPQWTLESRLEDVLLEGKERITNMRLNDFLRNYFDGRGVEEFNENVYMKYFLISPNEFIKDEVLLSTIKVSPPYQELKKEREEFYMLLEASNKLKKECIITLEQWSNFERKDTVTPLARAQINTAFSRVLREERWEAEERQRRERQEMGIDVSTRIKYAVLKGRVRVNKMKLNDFLTMELDGRGVGSANWNFLLRDFFICSTKYIYDVFLLLKIQASDRYNTMERAVRDEMDMEEDVNRLYKNGVDNLLKWLVAAAEVKANVHEVTKRFLDAAAEEAREPKKSSAPMKLEGCYESVYNASWHHFVEVPDGEGTVMEVREGEPPRSWTYKAVGDTLERNDGVEQSGAPRPRLMVLTSDKGWPYTWRRMDPLVAAM | not soluble
4 | MKMIIAIVQDQDSQELADQLVKNNFRATKLATTGGFLRAGNTTFLCGVNDDRVDEILSVINQTCGNREQLVSPITPMGGSADSYIPYPVEVEVGGATVFVMPVDAFHQF | not soluble
5 | MRSLTHIAKIELPPVRRVTYVKHYSIQPANLEFNAEGTPVSRDFDDVYFSNDNGLEETRYVFLGGNQLEARFPEHPHPLFVVAESGFGTGLNFLTLWQAFDQFREAHPQAQLQRLHFISFEKFPLTRADLALAHQHWPELAPWAEQLQAQWPMPLPGCHRLLLDEGRVTLDLWFGDINELISQLDDSLNQKVDAWFLDGFAPAKNPDMWTQNLFNAMARLARPGGTLATFTSAGFVRRGLQEAGFTMQKRKGFGRKREMLCGVMEQTLPLPCSTPWFNRTGSSKREVAIIGGGIASALLSLALLRRGWQVTLYCADEAPALGASGNRQGALYPLLSKHDEALNRFFSNGFTFARRLYDSLPVKFDHDWCGVTQLGWDEKSQHKIAQMLSMDLPEELAVAVEANAVEQITGVTTNCSGITYPQGGWLCPAELTRNVLELAQQQGLQIYYQYQLQDLSRKDDCWLLTFAGDQQATHSVVVLANGHQISRFSQTSSLPVYSVAGQVSHIPTTPELAKLKQVLCYDGYLTPQNPANQHHCIGASYHRGSEETAYSEDNQQQNRQRLIDCFPHAQWAKTVDVSKKEARCGVRCATRDHLPMVGNVPDYEATLVEYASLAEQKDKAVSAPVFDDLFMFAALGSRGLCSAPLCAEILAAQMSDEPIPMDASTLAALNPNRLWVRKLLKGKAVKAG | not soluble
6 | MIEFFLPMDKIPTTTHQQKKVTVINGKPHFYEPESLKNARDKFTSLLAQHVPPSKLDGPIRLTVKWLFPKIKGSTNGQYKTTKPDTDNLQKLLKDCMTELGFWNDDAQVASEIIEKFWADTVGIYVKVEEL | not soluble
7 | MTNPNIPDDLLAKIAKKMADKCWWYLGPMLKSGPRGRDIVYRPDVLKNANIFSMCDDPDDFYAAGHDPNDINSEGRYRPFFKWCLQAGNPTAIYHEGLRLVTHESDIQGAILHLERIAPRNAAATLACAILYICAGNAHMGGVYLRLFGSNHYALESEDARDI | soluble
8 | MIDQFKFLNPQALISIFGKIPKFEESELLDVRLKRDGPTLVIQLMTKENVENKPKRWNKWDVIYVEISFFTIHNLTIKGLGTENIIDYFEINTIEEEGLLKIKCKNQMLVECSFEWAKVEGVTPGLIGLP | not soluble
9 | MLCAVYKSSRKADTYLFVNKRDCFDDVPQALLDMFGVPQLVMVFPIVKRESLGIADINKVRAALEEKGFYLQIPPPQVNLLAEHRENLGIKD | soluble
10 | FISRFAPDQPRKGADILVEALERQGVETVFAYPGGASMEIHQALTRSSSIRNVLPRHEQGGVFAAEGYARSSGKPGICIATSGPGATNLVSGLADALLDSVPLVAITGQVPRRMIGTDAFQETPIVEVTRSITKHNYLVMDVEDIPRIIEEAFFLATSGRPGPVLVDVPKDIQQQLAIPNWEQAMRLPGYMSRMPKPPEDSHLEQIVRLISESKKPVLYVGGGCLNSSDELGRFVELTGIPVATTLMGLGSYPCDDELSLHMLGMHGTVYANYAVEHSDLLLAFGVRFDDRVTGKLEAFASRAKIVHIDIDSAEIGKNKTPHVSVCGDVKLALQGMNKVLENRAEELKLDFGVWRNELNVQKQKFPLSFKTFGEAIPPQYAIKVLDELTDGKAIISTGVGQHQMWAAQFYNYKKPRQWLSSGGLGAMGFGLPAAIGASVANPDAIVVDIDGDGSFIMNVQELATIRVENLPVKVLLLNNQHLGMVMQWEDRFYKANRAHTFLGDPAQEDEIFPNMLLFAAACGIPAARVTKKADLREAIQTMLDTPGPYLLDVICPHQEHVLPMIPSGGTFNDVITEGDGRIKY | soluble
11 | MGSDKIHHHHHHMIDMNLILKKKFQEISEVDDFISKASTETDYFEPSTLSHGIPGIILFLDAYQKVFDINTEQIVHKYIMKLAPYLQSGQYNNSLFGGLSGIAFSMDLASQNGKNYQNILNNIDGHIVNEIENKFDQILQEPLNPLNYDTVSGLAGIGRYLLNRVDENEFNVKALKSILVYFKDIQYSKNSWVVPQESQFLESDKNYFTEGNINLGLAHGVLGPMSLFALCVIKGITIENHQHILKDMYKFIMDEKFCNHERWLQRYDLISERNHFNFIRNGWCYGNTGVMTTLFLIGQALYYYEIIKMSKKVMLQVVNDKDENLISPTICHGLSSQILMLTIMNLNFELNEVSDYITVLINKLISHYKEDYLVNFIDINENKQDVFKSRKVGLLEGELGVYLTLMTLKNTKILNEKNWTNAFLIS | not soluble
12 | MKALSKLKAEEGIWMTDVPVPELGHNDLLIKIRKTAICGTDVHIYNWDEWSQKTIPVPMVVGHEYVGEVVGIGQEVKGFKIGDRVSGEGHITCGHCRNCRGGRTHLCRNTIGVGVNRPGCFAEYLVIPAFNAFKIPDNISDDLAAIFDPFGNAVHTALSFDLVGEDVLVSGAGPIGIMAAAVAKHVGARNVVITDVNEYRLELARKMGITRAVNVAKENLNDVMAELGMTEGFDVGLEMSGAPPAFRTMLDTMNHGGRIAMLGIPPSDMSIDWTKVIFKGLFIKGIYGREMFETWYKMAALIQSGLDLSPIITHRFSIDDFQKGFDAMRSGQSGKVILSWD | soluble
13 | MGSDKIHHHHHHMAKPKRRYVCQACGSVTHRWQGQCVDCSEWNTLAEEAPETIFSAKHDLSSGGRRVAFVSLDQPVALPQRRKTGIAEFDRALGGGLVPGCAILMGGDPGIGKSTLLLQASAKVALSGGSAVYISGEEASDQVRLRADRLGLGKAPILLAAATSVRDILTTLGNMEPPSLVVIDSIQTMHSDQIEGAPGTVSQVRGCAFELIRYAKENGVALVLVGHVTKDGSIAGPRVLEHMVDVVMSFEGERSHQYRILRALKNRFGAVDEIGVFAMAGQGLEEVGNPSMLFLSGREQEVPGSAVFPALEGTRPVLVEIQALTVRLASGATPRRAVVGWDSGRLAMLLAVLEARCGLNFSSAEVYLNVAGGYRLTDPAADLAVAAALVSALSDRPLPSGSIWFGEISLAGEVRPVAHTPVRLKEAAKLGFSRGCGPEAGAEKVDGLRYSPLRLLPNLIDRVMGGS | not soluble
14 | EEGLSGSKTFKIITKDYDIMNKEIKERLGRYCTFTKVTIDEENNSFVEISCVINKLEEQKLKEIINDVDPDAFIAIYDTAEVKAGNMKKSDIY | soluble
15 | MVFSDQQLFEKVVEILKPFDLSVVDYEEICDRMGESMRLGLQKSTNEKSSIKMFPSYVTKTPNGTETGNFLALDLGGTNYRVLSVTLEGKGKSPRIQERTYCIPAEKMSGSGTELFKYIAETLADFLENNGMKDKKFDLGFTFSFPCVQKGLTHATLVRWTKGFSADGVEGHNVAELLQTELDKRELNVKCVAVVNDTVGTLASCALEDPKCAVGLIVGTGTNVAYIEDSSKVELMDGVKEPEVVINTEWGAFGEKGELDCWRTQFDKSMDIDSLHPGKQLYEKMVSGMYLGELVRHIIVYLVEQKILFRGDLPERLKVRNSLLTRYLTDVERDPAHLLYNTHYMLTDDLHVPVVEPIDNRIVRYACEMVVKRAAYLAGAGIACILRRINRSEVTVGVDGSLYKFHPKFCERMTDMVDKLKPKNTRFCLRLSEDGSGKGAAAIAASCTRQN | soluble
16 | MSKSESPKEPEQLRKLFIGGLSFETTDESLRSHFEQWGTLTDCVVMRDPNTKRSRGFGFVTYATVEEVDAAMNARPHKVDGRVVEPKRAVSREDSQRPGAHLTVKKIFVGGIKEDTEEHHLRDYFEQYGKIEVIEIMTDRGSGKKRGFAFVTFDDHDSVDKIVIQKYHTVNGHNCEVRKALSKQEMASASSSQRGR | soluble
17 | MSIERSSPIPLYFQLAGELRAAIESGAYPPGSKLPTEGELCQQYDVSRSVVRQALQSLAHDNLIETERGRGAFVLERKVPIALVQQLDPLLESMAKAGFKLTTRVLKQERIKPPAHVAEQIGENDAVFLERLRYADGVVFLVVRNFLPYSRFPDLLQSKELEDVSLYQYLAKRYNAVATTGKRQVELARINEEAIAAQLHVEMNSYVLFNREVTYDQNKQVLEYYESWHHPDRTRLTIDLHRTY | not soluble
18 | GPGSMLNTFMFPGQGSQAKGMGGALFDRFADLTAQADAVLGYSIRALCVDDPRDELGRTQFTQPALYVVNALTYYAKCEDSGETPDFLAGHSLGEFNALLAAGCFDFETGLKLVARRAELMSQARDGAMAAIVNASREQIERTLDEHGLVDTAIANDNTPSQLVISGPAHEIARAEALFQHDRVRYLRLNTSGAFHSKFMRPAQQAFAAHLQSFRLADPAIPVISNVSARPYENGRVSEGLAQQIASPVRWCESIRYLLALAAERGEAIEFTELGHGDVLTRLVHTIRRQTPAPAAAATSARARPTPPGEPERPAQQTAAAPRASDSASASLGAAERVAAWNRDYPVGTRVRSSLIHDDVLETRTPATVLFGHRAAVYMKGYNGYFDLAEVTPA | soluble
19 | MVIATIQAEDHSQQSGTQQETTTDTGGGKNVGYIDAGDWLSYAGTPVNIPSSGSYLIEYRVASQNGGGSLTFEEAGGAPVHGTIAIPATGGWQTWTTIQHTVNLSAGSHQFGIKANAGGWNLNWIRINKTH | soluble
